US10113152B1, “Variant polypeptides capable of aminating aliphatic alpha keto acids” (AbbVie Inc., priority 2014, dated 2018)

Assays:
[1] = Reductive amination of 2-oxonon-8-enoic acid to (S)-LCAA by leucine dehydrogenase (NADH consumption at 340 nm, HPLC of aliquots); assay type: biochemical; conditions: by four hours; 10 mM 2-oxonon-8-enoic acid, 2 M NH4Cl/OH, pH 9.5, 30° C., GDH/glucose NADH regeneration; FIG. 3
Protocol: (§1) To produce (S)-LCAA from 2-oxonon-8-enoic acid, a reaction was performed under the following conditions. In 200 mL total volume and a buffered pH of 9.5, the aqueous reaction mixture contained 10 mM 2-oxonon-8-enoic acid, 12 mM glucose, 1 mM NAD^+, 50 mg of purified glucose dehydrogenase (GDH-105; Codexis, Redwood City, Calif.), 2 M NH4Cl/OH, and approximately 60 mL/L of purified leucine dehydrogenase cell-free extract. FIG. 2 depicts the reaction scheme for converting 2-oxonon-8-enoic acid to (S)-LCAA using leucine dehydrogenase. The mixture was incubated at 30° C. and with shaking at 150 rpm for four hours.
Enzyme activity was measured spectrophotometrically by monitoring the consumption of NADH in the reductive amination at 340 nm. Activity was defined as the number of micromoles of NADH consumed in 1 minute (μmol min^−1). Aliquots of the reaction mixture were obtained periodically during the course of the reaction and subjected to analysis by high performance liquid chromatography (HPLC).
To increase the affinity of LDH for the 2-oxonon-8-enoic acid substrate and, thus, enhance the enzyme's activity for producing (S)-LCAA, amino acid substitutions were made within the region of LDH that binds to the substrate. Specifically, amino acid substitutions were introduced at position 42 of B. cereus leucine dehydrogenase (SEQ ID NO:1) using standard mutagenesis techniques. Wild-type B. cereus LDH, along with 19 variants (one for each amino acid substitution at position 42) were expressed and isolated as described in Example 1. The enzymatic activity of the variant proteins was evaluated alongside wild-type B. cereus LDH in the reaction described in Example 1. […] While the disclosure is not bound by any particular theory or mechanism of action, the substitutions that increased the enzymatic activity of the LDH enzyme are believed to have increased the depth of the substrate binding pocket in LDH and thereby increased the affinity of LDH for the 2-oxonon-8-enoic acid substrate.

[2] = HPLC analysis of the percentage of (S)-enantiomer in the LCAA reaction product; assay type: biochemical; conditions: LCAA product of the Example 1 reaction, FIG. 4
Protocol: as §1
To determine what percentage of the LCAA reaction product of the reaction was (S)-LCAA, aliquots of the reaction mixture were analyzed using high performance liquid chromatography (HPLC).

B1: wild-type B. cereus LDH: wild-type B. cereus leucine dehydrogenase, amino acid sequence SEQ ID NO:1 (UniProt P0A392), cell-free extract from E. coli (protein, listed as Bacillus cereus)
chain: MTLEIFEYLEKYDYEQVVFCQDKESGLKAIIAIHDTTLGPALGGTRMWTYDSEEAAIEDALRLAKGMTYKNAAAGLNLGGAKTVIIGDPRKDKSEAMFRALGRYIQGLNGRYITAEDVGTTVDDMDIIHEETDFVTGISPSFGSSGNPSPVTAYGVYRGMKAAAKEAFGTDNLEGKVIAVQGVGNVAYHLCKHLHAEGAKLIVTDINKEAVQRAVEEFGASAVEPNEIYGVECDIYAPCALGATVNDETIPQLKAKVIAGSANNQLKEDRHGDIIHEMGIVYAPDYVINAGGVINVADELYGYNRERALKRVESIYDTIAKVIEISKRDGIATYVAADRLAEERIASLKNSRSTYLRNGHDIISRR
- conversion of the substrate to LCAA [1]: greater than 99.5%
- percentage of the reaction product that was the (S)-enantiomer [2]: greater than 99.5%
